In patent US20190227052A1 (published 2019):
Substitutions are numbered along the chain they refer to. Each block holds one binder with its values, some of them ahead of it.

Molecular target: T1, human NRP1 protein (human, UniProt O14786 22-856, limits assumed)
T1 construct: also called hNRP1 protein; neuropilin 1
T1 sequence (looked up): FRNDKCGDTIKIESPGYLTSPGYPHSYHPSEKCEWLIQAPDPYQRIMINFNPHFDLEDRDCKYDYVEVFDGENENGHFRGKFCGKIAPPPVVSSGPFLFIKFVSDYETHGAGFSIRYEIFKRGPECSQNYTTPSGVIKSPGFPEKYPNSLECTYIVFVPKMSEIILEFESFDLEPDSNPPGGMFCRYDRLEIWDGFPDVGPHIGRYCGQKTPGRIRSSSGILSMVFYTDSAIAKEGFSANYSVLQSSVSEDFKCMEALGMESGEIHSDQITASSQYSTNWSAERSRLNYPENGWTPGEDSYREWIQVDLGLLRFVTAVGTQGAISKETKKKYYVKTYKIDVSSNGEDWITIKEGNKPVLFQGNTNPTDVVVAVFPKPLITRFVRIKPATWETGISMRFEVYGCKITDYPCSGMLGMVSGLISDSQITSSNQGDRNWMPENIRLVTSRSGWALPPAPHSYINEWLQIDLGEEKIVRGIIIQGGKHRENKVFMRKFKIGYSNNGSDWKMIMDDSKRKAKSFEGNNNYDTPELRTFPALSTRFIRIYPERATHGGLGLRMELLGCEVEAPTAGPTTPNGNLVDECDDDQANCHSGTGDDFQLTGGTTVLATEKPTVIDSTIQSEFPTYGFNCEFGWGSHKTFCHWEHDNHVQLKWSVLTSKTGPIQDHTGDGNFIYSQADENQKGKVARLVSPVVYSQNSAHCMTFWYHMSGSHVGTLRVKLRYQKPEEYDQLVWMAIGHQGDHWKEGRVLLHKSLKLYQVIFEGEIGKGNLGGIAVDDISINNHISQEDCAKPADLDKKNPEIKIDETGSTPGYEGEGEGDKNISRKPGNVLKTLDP
Experiment: SPR, Biacore T100

Kd: 295 nM
B1: 3H10 scFv (scFv, V domains shown)
VH: EVQLLESGGGLVQFQQSLRLSQAASQFTFSSYYMSWVRQAFGKGLEWVSAISPGSSNKYYADSVKGRFTISRDNSKNTLYLQMNELRAEDTAVYYCARRKYMFDYWGQGTLVTVSS
VL: GSVLTQPPSASGTPGQRVTISCTGESSNIGNNDVYWYQQLPGTAFKLLIYSQSNRPSGMPDRFSGSKSGTSASLAISGLRSEDEADYYCASWDSSLSGYVFGGGTKLTVTL

Kd: 89.4 nM
B2: 1A03 scFv (scFv, V domains shown)
VH: B1 VH with Q15G, Q16G, Q26G, P53F, K65Q, Y101K, M102S
VL: QSVLTQFFSASGTPGQRVTISCSGFSSNIGNNDVSWYQQLFGTAPKLLIYSCNNRPSGVPDRFSGSKSGTSASLAISGLRSSDEADYYCGAWVASLSAYVFGGGTKLTVTL
